Test results taken from the nanobody polyreactivity screen of Harvey et al. (2022).

Assay: yeast display, Sf9 membrane polyspecificity reagent, FACS + sequencing; frameworks hold sequencing errors
In short: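 Genes from sorted yeast were amplified by colony PCR, read by MiSeq 2 × 250 sequencing and filtered on CDR length. These cells carried a synthetic nanobody library in Saccharomyces cerevisiae BJ5465 and were sorted by FACS into low and high (top ~1%) gates on anti-HA and streptavidin fluorescence. Polyreactivity is labelled according to the gate of origin.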

Sequence	polyreactivity (PSR sort gate)
QVHLVESGGGLVQAGGSLRLSCAASGRGYYALGWYRQAPGKERELVAAISRGGNTKYADSVKGRFTISRDNAKNSVYLQMNSLKPEDTAVYYCAAYAYSYELYYWGQGTQVTVSS	high polyreactivity
QVQLVESGGGLVQAGGSLRLSCAASGSIFVKYAMGWYRQATGKERELVASITGRGGSTYYADSVKGRFTISRDNAKNTVYFQMNSLIPEDTAVYYCAARVASRHGWHNYWGQGTQVTVSS	high polyreactivity
QVQLVESGGGLVQAGGSLRLSCAASGSIFQGNVMGWYRPAPGKERELVAAISYSGDSTYYADSVKGRFTISRDNAKNTVYLQMNRLKPEDSAVYYCYAYRNRYGYRTSSRRYGYWGQGTQVTVSS	high polyreactivity
QVQLVESVGGLVQAGGSLRLSCAASGYTFYRYAMGWYRQAPGKESELVAGISRDGGSTYYADSVKGRFTISRDNAKNTVYLQMNSLKPEDTAVYYCAADKTRYRLGRDYWGQGTQVTVSS	low polyreactivity
QVQLEETVGGLVQAGGSLRLSSAATGLTFYLYVMGWYSQAHGKERELVAAISRRGGTTYYADSVKGRVTISRDKAKNTVYLQLNCLKPDDTAVYDCAADFFARTQRTFDYWGLGTQVTVSS	high polyreactivity
QVQLVESGGGLVQAGGSLRLSCAASGSTFFLYAMGWYRQAPGKERELVAAITWRSGRTYYADSVKGRFTISRDNAKNTVYLQMNSLKPEDTAVYYCAADYVLGEVVRYDYWGQGTQVTVSS	high polyreactivity
QVQLVESGGGLVQAGGSLRLSCAASGRTFVPYAMGWYRQAPGKERELVAAISYSGDSTYYADSVKGRFTISRDNAKNTVYLQMNSLKPEDTAVYYCAARGGNPFYYWGQGTQVTVSS	low polyreactivity
QVQLVESGGGLVQAGGSLRLSCAASGSTFYKNAMGWYRQAPGKEREFVAAIRSGDSTNYADSVKGRFTISRDNAKNTVYIQMNSLKPEDSAVYYCARDRPGDYAGYDYWGQGSQVTVSS	low polyreactivity
QVQLVESGGGLVQAGGSLRLSCAASGRTFWSNAMGWYRQAPGKERELVATISSGGGNTYYADSVKGRFTISRDNAKNTVYLQLNSLKPEDTAVYYCAATKYRWTYAASFGYWGQGTQVTVSS	high polyreactivity
QVQLVESGGGLVQAGGSLRLSCAASGSIFVSYAMGWYRQAPGKDRELVAAITSAGTTYYADSVKGRFTISRDNAKNTVYLQMNSLNPEDTAVYYCNTDASFKRTRVSPETEYGYWGQGTQVTVSS	low polyreactivity
QVQLVESGGGLVQAGGSLRLSCAASGSTFVDYAMGWYRQAPGKERELVAAINERGGSTYYADSVKGRFTISRDNAKNTVYLQMNSLKPEDTAVYYCAARRRTRSSHSWYIRYGYWGQGTQVTVSS	low polyreactivity
QVQLVESGGGLVQAGGSLSLSCAASGSIFRSYAMGWYRQAPGKERELVAAITNGGSTYYADSVKGRFTISRDNAKNTVYLQMNSLKPEDTAVYYCAAARYTYWFYLVKKTGYYWGQGTQVTVSS	high polyreactivity
QVQLVESGGGLVQAGGSLRLSRAASGRTFYFNAMGWYRQAPGKERELVAGISGDGSTNYADSVKGRFTISRDNAKNTVYLQMNSLKPEDTAVYYCAKTLGSQNYDFDYWGQGTQVTVSS	low polyreactivity
QVQLVESGGGLVQAGGSLRLSCAASGRIFTTNAMGWYRQAPGKERELVAAITYSGGTTYYADSVKGRFTISRDNAKNTVYLQMNSLKPEDTAVYYCAADVKFSTPYDYWGQGTQVTVSS	low polyreactivity
QVQLVESGGGLVQAGGSLRLSCAASGIIFRGYAMGWYRQAPGKERELVAAISKSGGSTYYADSVKGRFTISRDNAKNTVYLQMNSLKPEDTAVYYCAADVYKQYGYYYWGQGTQVTVSS	high polyreactivity
QVQLVESGGGLVQAGGSLRLSCAASGRIFSQNAMGWYRQAPGKERELVAAISGGSTNYADSVKGRFTISRDNAKNTVYLQMNSLKPEDTAVYYCAVRWYFYHRSVEYDYWGQGTQVTVSS	low polyreactivity
QVQLVESGGGLVQAGGSLRLSCAASGLTFYSYAMGWYRQAPGKERELVAAISNTGGTNYADSVKGRFTISRDNAKNNVYFQMTSLKPEDTAVYYCNRTFYHYLYRGYGYWGQGTQVTVSS	low polyreactivity
QVQLVESGGGLVQAGGSLRLSCAASGLTFRVYAMVWYRQAPGKERELVAAISKRGGSTYYADSVKGRFTISRDNAKKTVYLQMNSLKPEENAVYSCAADSDNSVRLAGSGGNYCGQGTQVTVSS	high polyreactivity
QDQLVESGGGLVQAGGSLRLSCAASGSIFPSNTMGWYRQAPGKERELVAAITGSGGSTYYADSVKGRFTISRDNAKNTVYLQMNSLKPEDTAVYYCAARYRVDGVKYGYWGQGTQVTVSS	high polyreactivity
QVQLVESGGGLVQAGGSLRLSCAASGFIFSRYAMGWYRQAPGKERELVAAISGRGTSTYYADSVKGRFTISRDNAKNTVYLQMNSLKPEDTAVYYCNTYSQPKWGTSDYDYWGQGTQVTVSS	high polyreactivity
QVQLVESGGGLVQAGGSLRLSCAASGSIFWSNAMGWYRQAPGKEREFVAAITWSGDNTYYADSVKGRFTISRDNAKNTVYLQMNSLKPEDTAVYYCAASGDYYWDEGDYWGQGTQVTVSS	low polyreactivity
QVQLVESGGGLVQAGGSLRLSCAASGSIFFYYAMGWYRQAPGKERELVASISTDGSTYADSVKGRFTISRDNAKNTVSLQMNSLKPEDTAFYYCATRGAEAERFASYDFDYWGQGTQVTVSS	low polyreactivity

Sequence	polyreactivity (PSR sort gate)
QVQLVESGGGLVQAGGSHRLSCAASGLTFFPYAMGWYRQAPGKERELVAAITTSDGTTYYADSVKGRFTISRDNAKNTVYLQMNSLKPEDTAVYYCAAVYSPRSVWWYDYWGQGTQVTVSS	low polyreactivity
QVQLVESGGCLVEAGGSLRLSCAASGRIFVHKAMGWYRQAPGKEREFVAAISLRGGSTYYADSVKGRFTISRDNAKNTVYLQMNFLKPEVTAVYYCAAVPAHFYGYDYWGQGTQVTVSS	low polyreactivity
QVQLVESGGGLVQAGGSLRLRCAASGRIFARNAMGWYRQAPGKERELVAAISSRGSSTYYADSVKGRFTISRDNAKNTVYLQMNSLKPEDTAVYYCNAYYSVYPPGYDYWGQGTQVTVSS	high polyreactivity
QVQLVESGGGLVQAGGSLRLRCASSGRIFFGYAMGWYRQAPGKERELVASISRGGSTNYADSVKGRFTISRDNAKNTVYLQMHSLKPEDTAVYYCAASRYLQRYGMYYWGQGTQVTVSS	high polyreactivity
QVQLVESGGGLVQAGGSLRLSCAASGSIFCDKAMGWYRQAPGKERELVAAISIVGSTSYADSVKGRFTISRDNANNTVYLQMNSLKPEDTAVYYCAAENVRSDTGFDYWGQGTQVTVSS	low polyreactivity
QVQLVESGGGLVQAGGSLRLSCAASGSIFAQNAIGWYRQAPGKERELVAAIDLNGGSTYYADSVKGRFTISRDNAKNTVYLQLNSQKPEDTAVYYCAVYYGHSSVIRSSPEYDSWGQGTQVTVSS	low polyreactivity
HVQLQESGGGLVQAGGSLRLSCAASGNISYSRNMGWYRQAPGKERELVAAIDRGAITYYADSVKGRFTISRDNATNTVYLQIYSLKPEDTAVYYCAAEYHDRWDHRYWGQGTQVTVSS	high polyreactivity
QVQLVESGGGLVQAGGSLRLSCAASGSILTWYPMGWYRQAPRKERELVAAITRGGSTYADSVKGRFTISRDNAKNTVYLQMNILKPEDTAVYYCKAVYGVYVFNYWGQGTQVSVSS	low polyreactivity
QVQLVESGGGIVQAGCSLRIICAASGYTFGYYAMGSYRQAPGNERQFVAAITIDARTTYADSVKGRFTISRDKAKKTFYLQINSLKADDTAFYYCARGYFPYGYPWRWGYDRFDYWGQGTLVTVSS	low polyreactivity
QVQLVESGGGLVQAGGSLRLSCAASGLPFYQYAMGWYRQAPGKERELVAGISSGGSTKYADSVKGRFTISRDNAKNTVYFQMNSLKPEDTAVYYCAARFYAFRKGYYYWGQGTQVTVSS	high polyreactivity
QVQLVESGGGLVQAGGSLRLSCAASGSNIKYYAMGWYRQAPGKERELVARITSDGGSTFYADSVKGRFTISRDNAKNTVYLQMNSLKPEDTAVYYCNTAYAFRHCWFYPMDYWGQGTQVTVSS	high polyreactivity
QVQLVESGGGLVQAGGSLRLSCAACGSTFPGNAKGWYRQAPGKERELVAAISSSGGITYYADSVKGRFTISRDNAKNTVYLQMNSLIPEDTAVYYCSWGHGTQVTVSS	low polyreactivity
QVQLVESGGGLVQAGGSLRLSCADSGRTFTRYAMGWYRQAPGKERELVAAISYIGGGTYYADSVKGRFTISRDNAKNTVYLQMNSLKPEDTAVYYCAGYSRQAEYEYWGQGTQVTVSS	high polyreactivity
QVQLVESGGGLVQAGGSLRLSCAASGRIFAYNAMGWYRQAPGKERELVAAIDSGGDTNYADSVKGRFTISRDNAKNTVYLQMNSLKPEDTAVYYCAARLYVLRWYPYDYWGHGTQVTVSS	low polyreactivity
QVQLVESGGGLVKAGGSLRLSCAASGLISWLYVMGWYRQAPGKERELVAAIRYSGGRTYYADSVKGRFTISRDNAKNTVYLQMHSMKPEDTAVYYCNALPWALYDSTSIYYYWGQGTQVTVSS	low polyreactivity
QVQLVESGGGLVQAGGSLRLSCAASGSTFRWNAMGWYRQAPGKETELVAAITRSVGSTYYADSVKGRFTISRDNAKNTVYLQMNSLKPEDTAVYYCAADFYYYGFDYWGQGTQVTVSS	low polyreactivity
QVQLVESGGGLVQAGGSLRLSCAASGFIFVTYAMGWYRQAPGKETELVAAINNSGGTTYYADSVKGRFTISRDNAKNTVYLQMNSLKPEDTAVYFCNKRYGAETAHREFDYWGQGTQVTVSS	low polyreactivity
QVQLVESGGGLVQAGGSLRLSCAASGSTFLITALGWYRQAPGKEREFVADISSSDGSTYYADSVKGRFTISRDNAKNTVYLQMNSLKPEDTAVYYCAAAHVEGSYHKYYYWGQGTQVTVSS	high polyreactivity
QVQLVESGGGLVQAGGSLRLSCAASGRTFGYNAMGWYRQAPGKERELVAAINWSGASTYYADSVKGRFTISRDNAKNTVYLQMNSLKPEDTAVYYCAADYSYIYGFDYWGQGTQVTLSS	low polyreactivity
QVQLVESGGGLVQAGGSLRLSCAASGSIFQVNAMGWYRQAPGKERELVASITTSGGSTYYADSVKGRFTISRDNAKNTVYLQMNSLKPEDTAVYYCAADHWSQDYDYWGQGTQVTVSS	low polyreactivity
QVQLVESGGGLVQAGGSLRLSCAASGSTFVFYAMGWYRPAPGKERELVASISFRGGSTRYADSVKGRFTISRDNAKNTVYLHMNSLKPEDTAVYYCNARPFYRYYYWGQGTQVTVSS	high polyreactivity
